Tested on: K4 kissing-loop RNA reporter
Experiment: apparent KD of K4 kissing-loop reporter; higher = weaker reporter binding
Details: Eterna round: R107
Description: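 RNA-MaP round R107: designed RNA switches with theophylline, tryptophan, arginine or FMN aptamers are transcribed on-chip within common flanks. They are titrated with a labelled K4 kissing-loop RNA reporter in RNA-MaP buffer (100 mM Tris pH 7.5, 80 mM KCl, 4 mM MgCl2), without ligand or with the indicated ligand. Median apparent KD per design.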

[1] = input ligand: theophylline 20 uM
[2] = input ligand: tryptophan 2.4 mM
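Further: bound reporter read as fluorescence of individual clusters on recovered sequencing chips by microscopy, with normalized cluster intensities fitted with a binding model.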

Sequence	apparent KD of K4 kissing-loop reporter (input ligand: FMN 200 uM)	apparent KD of K4 kissing-loop reporter (input ligand: arginine 13.2 mM)	apparent KD of K4 kissing-loop reporter (input ligand: none)	apparent KD of K4 kissing-loop reporter [1]	apparent KD of K4 kissing-loop reporter [2]
AGUGCACUGUCAGGAUAUAUACAGUGAUGUUGUGUAUGUCAGCAAGUCAAAGACUUGCUAUUUUGUGUAGAAGGGACUGUGUACA [whbob_Ex_FMNB__2th221]	0.385 µM	0.156 µM	0.176 µM	0.155 µM	0.177 µM
AGUGGACGUGUCCGGAGUGAUGUUCCGGAUACCAGACACGAAAGUGUCCCUUGGCAGCCGGAGUAAAGUUCCGGCGUUCACUAAA [#26 K4 Theophylline A Exclusion]	0.109 µM	0.0778 µM	0.111 µM	0.0672 µM	0.105 µM
AGUGGACGUGUCCGGAGUGAUGUUCCGGAUACCAGACACGAAAGUGUCCCUUGGCAGCCGGAGUGAUGUUCCGGCGUUCACUAAA [Omei KL Theo A Exc B v1]	0.27 µM	0.185 µM	0.243 µM	0.22 µM	0.257 µM
AGUGGUGUAUCUUUUAAGAGUGAUGUUUUUCGAGGACCGGUACGGCCGCCACUCGAGUGAUGAGUGCGUCGUUGUGGUGAUUAGU [#14 K4 Tryptophan A Exclusion]	0.816 µM	0.53 µM	0.826 µM	0.688 µM	0.262 µM
AGUGUUAGGUUAGAUACCAGCCGUCUAUGGAUAAUCCUCAGACCGCCAGUGAUGUUGGCAGGCCCUUGGCAGCUAACAGAACAGA [Reinonor]	0.202 µM	0.218 µM	0.24 µM	0.164 µM	0.213 µM
AGUGUUAGGUUAGAUACCAGCCGUCUGUGGAUAAUCCUCAGACCGCCAGUGAUGUUGGCAGGCCCUUGGCAGCUAACAGGACAGA [Mavebius]	0.275 µM	0.268 µM	0.272 µM	0.155 µM	0.237 µM
AGUUCUUGCCGAAGGAGCGAGGCAGAGUGAUGUUCUGCAAAGGUCGAAAGACCUUAACUGCCUCAGGUAGGUCGCGGCAUGAACA [KL-XARG-B23]	0.622 µM	0.351 µM	0.624 µM	0.602 µM	0.58 µM
AGUUCUUGCCGAAGGAGCGAGGCAGAGUGAUGUUCUGCAGGAGGUCGAAAGACCUCCCUGCCUCAGGUAGGUCGCGGCAUGAACA [Omei KL Arginine B Exc A v1]	0.587 µM	0.59 µM	1.25 µM	0.566 µM	0.478 µM
AUAGACUUGCAGUGAUGUUGCAAGUGAGACUAGGAUAUCAGGAAGCUGAGAAGGAGUCAUCUCCUUCAGACAUCACUAUGAAGGA [whbob_SS_FMNA__2th180]	0.27 µM	0.18 µM	0.251 µM	0.204 µM	0.221 µM
AUAGGAGUGAUGUUCCUUAGUCUCUCCGAUACCAGUAUGGAAACAUACCCUUGGCAGCGGUAGACCGCAGAUUAGGAAACUAGUC [Theophylline A K4 3]	0.657 µM	0.726 µM	0.785 µM	0.503 µM	0.61 µM
AUAUAGAGUGAUGUUCAUGAGUAUUUCGAAGGAGCGCUAAAUAAGGCAGGUAGGUCGCGGAAAAUAUAUAUAUAGAUAUAUAUAU [KL-SSArg-A29]	0.168 µM	0.351 µM	0.535 µM	0.665 µM	0.28 µM
AUAUUAAGCGGAAGGAGCGGCUGAACCAGUGAUGUUGGUUAAUCCAAGUGAUGUUGGAAAAGCCAGGUAGGUCGCCGCUAUAUAU [Same State Arg B GF 1]	0.725 µM	0.424 µM	0.695 µM	0.569 µM	0.64 µM
AUCGAUAUCAGAGGAUAUGCUUAAUAGAUUUAUUAUUAUCUAUUAUGCAGUGAUGUUGCAUAUUUUGCAGAAGGCUGAUUUCGAA [JR_SSFMNB_Sub019]	0.124 µM	0.433 µM	0.447 µM	0.429 µM	0.403 µM
AUCGUUGUCUGAGGAUAUCGUUUAACUGUAGUGAUGUUACAGAAAAUUCAUAUUAUAUUUUCUAUUCGAGAAGGCAGACUACGUA [JR_ExcFMNB_Sub016]	0.172 µM	0.133 µM	0.135 µM	0.123 µM	0.138 µM
AUCUAUGAGCGAGGAUAUGCAUGACGCGAGUGAUGUUCGCGAUGUGGGCGUGAUUAGUAAUAUGAAGCAGAAGGCGCACUCAUGA [Exclusion - FMW B / A]	0.216 µM	0.111 µM	0.153 µM	0.116 µM	0.129 µM
AUCUGGUUGGGCGAUACCAGUUUGGCAUAGUGAUGUUAUGCAACGCUCAGUGCAAGGCCAAACCCUUGGCAGCGCACAUCCUUUC [theeternabot_exclusion_KL_Theo_B_3]	0.128 µM	0.0991 µM	0.105 µM	0.117 µM	0.105 µM
AUCUUGUUUGGAGGAUAUUCUUUAUUUGACAUAACCUUCUAUAAGGUGCAGUGAUGUUGCAAUAUAGGAGAAGGUCGAGUGAGAU [Exclusion FMN B GF 18]	0.19 µM	0.16 µM	0.188 µM	0.202 µM	0.177 µM
AUGCGCGCGGCGGCCGCCACUCGCAUGAGAGUGAUGUUCUCGCCGGGCCCGGAAGGGCCCGGUGUGAGGACCGGGCCGGGCUGCG [#2 Same State - Tryptophan B Attempt #17 (HarryS)]	0.121 µM	0.0732 µM	0.175 µM	0.278 µM	0.344 µM
AUGCGGUGGAGGCUACCGCUAUUCUGAGAAGGAGCGCAGAUGACUGCAGGUAGGUCGCUUAGAGCUUGCAGUGAUGUUGCAAGUU [Islatimaed]	0.2 µM	0.168 µM	0.191 µM	0.174 µM	0.204 µM
AUGGCACGACUUGCCCACAAUGUCUAUGCCCGAGGACCGGUACGGCCGCCACUCGGAUGCCGUGUCUUAUUAGUGAUGUUGAUAC [theeternabot_sameState_KL_Trp_A_4]	0.355 µM	0.204 µM	0.411 µM	0.355 µM	0.199 µM
AUGGUUGUCGUAGGAUAUGUAGGAUAUUCCUAUAGCAGUGAUGUUGCUAAUAUCUUGGAAAGAAGGACAGAAGGACGAUAACCAC [KL-SSFMN-B2 #analogue]	0.114 µM	0.112 µM	0.119 µM	0.108 µM	0.111 µM
AUGUAUGAAUUAGGAUAUCGUUAGCCUUGCAUAUAUAUGAUAAAUGGAUAUGUCGUAGUGAUGUUACGAGAAGGAGUGUGGAGUA [KL-XFMN-B5]	0.0446 µM	0.0505 µM	0.0389 µM	0.0634 µM	0.0302 µM

Sequence	apparent KD of K4 kissing-loop reporter (input ligand: FMN 200 uM)	apparent KD of K4 kissing-loop reporter (input ligand: arginine 13.2 mM)	apparent KD of K4 kissing-loop reporter (input ligand: none)	apparent KD of K4 kissing-loop reporter [1]	apparent KD of K4 kissing-loop reporter [2]
AUGUAUGAAUUAGGAUAUCGUUAGCCUUUCAUAUAUAUGAUAAAUGGAUAUGUCGUAGUGAUGUUACGAGAAGGAGUGUGGAGUA [KL-XFMN-B8]	0.0493 µM	0.0529 µM	0.0382 µM	0.0646 µM	0.0305 µM
AUGUUGAGCGGAAGGAGCGGCUGAGCCAGUGAUGUUGGUUAAUCCAAGUGAUGUUGGAAAAGCCAGGUAGGUCGCCGUUUUACGU [whbob_SS_Arginine_B_2t145]	1.01 µM	0.597 µM	1.19 µM	0.807 µM	0.887 µM
AUUAAUAACAGAGGAUAUGCAUUUUUAUUAUUUUUUAUUAUUAUAUGCAGUGAUGUUGCAUAUUAAGCAGAAGGCUGAUUUAUUU [JR_SSFMNB_Sub013]	0.117 µM	0.105 µM	0.079 µM	0.11 µM	0.102 µM
AUUAAUAUCACGGCCGCCACUGAAUAUUGUUUUUAUAUUUAGAAUAAUUGCCAGUGAUGUUGGAUCAGGACCGGGUGAUUUUAUA [JR_SSTryptoB_Sub008]	0.775 µM	0.489 µM	0.727 µM	0.739 µM	0.36 µM
AUUAAUUUCAGAGGAUAUCGUAUUUAUAUUAUAUCUUUCCAUAUUUGCAGUGAUGUUGCAUUAAUUCGAGAAGGCUGAUUUAUAA [JR_Nu_ExcFMNB_Sub024]	0.0861 µM	0.091 µM	0.0604 µM	0.0824 µM	0.0537 µM
AUUAAUUUCAGAGGAUAUCGUUAUUUUUUAUAGUAUAUUCAAUUAUGCAGUGAUGUUGCUAUUAAUCGAGAAGGCUGAUUUAUAA [JR_ExcFMNB_Sub002]	0.179 µM	0.204 µM	0.156 µM	0.25 µM	0.112 µM
AUUCAGAUCUGAAGGAGCGCGUUGACAUAUUGCUUCAUUGAGCAGUGAUGUUGCUCAGUAACGCAGGUAGGUCGCAGAUCUGGCC [Arg B Ex t7a]	0.113 µM	0.11 µM	0.099 µM	0.0923 µM	0.104 µM
AUUCAUUUCAGAGGAUAUCGAUGGAGAGUGAUGUUCUCCCAUAGCCAGUGAUGUUGGCUAGCUAUUCGAGAAGGCUGUGGGUGGA [Same State FMN B GF 27]	0.141 µM	0.227 µM	0.21 µM	0.202 µM	0.208 µM
AUUCGCAGUGAUGUUGCGAUUCCGUUGAGGGAGGAUAUUGGUAAUACAAGAAGGCCCGGCUGCGGGUGAUGUUCGCAUUAGGGCC [Exclusion FMN A GF18]	0.151 µM	0.143 µM	0.146 µM	0.153 µM	0.126 µM
AUUCGCUCCACUGAUACCAGUCAUCGAGCAAGAUGCUAAGCCAGUGAUGUUGGCAUGAAUGACCCUUGGCAGCAGUACACUAAGG [Theo B SS t7]	0.0654 µM	0.106 µM	0.0756 µM	0.113 µM	0.06 µM
AUUCUAUUGUGAAGGAGCGCGUAUAGUAGUGAUGUUACUAUAAUAAUAGAUAUUUAAUUCUCGCAGGUAGGUCGCACAAUAUAUA [JR_Nu_ExcArginiB_Sub025]	0.102 µM	0.0826 µM	0.0963 µM	0.0856 µM	0.092 µM
AUUCUGUUUUUGAUGUUUUUUGUAUAAUGGCAGGAUAUCGUAGAAGCGAGAAGGGCUUUUAUGCGUUAUGAGUGAUGUUUGUAGG [ttytewvmullin]	0.298 µM	0.222 µM	0.271 µM	0.275 µM	0.227 µM
AUUGUACAAGUGAUGUUUGUUUUUUCCGAAGGAGCGUCUAAUAAGACAGGUAGGUCGCGGAUUCUCUUAAUAAUCAGGUCAUUAA [JR_Nu_ExcArginiA_Sub020]	0.364 µM	0.275 µM	0.305 µM	0.281 µM	0.221 µM
AUUUAAUGUAUAGAUUAUAUACAUAAUUCAGAGGAUAUGCAUAGAAGCAGAAGGCUGGUUGCAGUGAUGUUGCUUUUUUAAUUUA [JR_SSFMNA_Sub008]	0.0309 µM	0.125 µM	0.0767 µM	0.185 µM	0.0638 µM
AUUUAGACGAGUGAUGUUCGUGUUAUUACAGAGGAUAUGCGUAAUUGCAGAAGGCUGUAUUUAUAUAUGUUAUGUAGUUUUAAAA [whbob_Ex_FMNA__2th184]	0.0873 µM	0.108 µM	0.0848 µM	0.0948 µM	0.0741 µM
AUUUGUUUAUGCGAUACCAGACUAAGCAGUGAUGUUGCUUUUAUUUUUGAAUUUUAAAUAGUCCCUUGGCAGCGCUAUGUCUGUA [#06 K4 Theophylline B Same State]	0.127 µM	0.2 µM	0.183 µM	0.217 µM	0.119 µM
AUUUGUUUAUGUGAUACCAGACUUUGCAGUGAUGUUGCAUUUAUUUUAGAAUAUAAUUUAGUCCCUUGGCAGCACUAUGUAUUUA [JR_SSTheophyB_Sub008]	0.0671 µM	0.11 µM	0.0738 µM	0.109 µM	0.0634 µM
AUUUUAUUAACUGAUACCAGACUUAAUGAAUUGUAAAUUACUAGUGAUGUUAGUGAUUCUGUCCCUUGGCAGCAGUAUUUAUUAA [JR_ExcTheophyB_Sub012]	0.129 µM	0.146 µM	0.139 µM	0.141 µM	0.118 µM
AUUUUGGUUUAGAGUGAUGUUCCUUGUAUUCGAGGACCGGUACGGCCGCCACUCGAAUAGAAAAGAAAAGAAAUGUUUGAUUUUU [BDazzled - #7 SS Tryptophan A]	0.406 µM	0.211 µM	0.556 µM	0.351 µM	0.361 µM
AUUUUUUUGUCAGGAUAUUAGUAUGCGUUUGGUUUGUUAGUGAUGUUGAUAUUUUGUUUAUGUAUUUAAGAAGGGAUUUAGCGGU [yyitemullin]	0.497 µM	0.348 µM	0.511 µM	0.497 µM	0.359 µM
AUUUUUUUGUCAGGAUAUUAGUGUGCGUUUGGUUUGUUAGUGAUGUUGAUAUUUUGUUUAUGUAUUUAAGAAGGGAUUUAGCGGU [aaeatemullin]	0.534 µM	0.436 µM	0.501 µM	0.504 µM	0.349 µM
